# Test results: article doi:10.1101/208041
# Read-outs that look alike come from different tables or passages of the source.
# T1: MpAgo WT (Marinitoga piezophila, UniProt H2J4R4 1-639)
# T1 sequence: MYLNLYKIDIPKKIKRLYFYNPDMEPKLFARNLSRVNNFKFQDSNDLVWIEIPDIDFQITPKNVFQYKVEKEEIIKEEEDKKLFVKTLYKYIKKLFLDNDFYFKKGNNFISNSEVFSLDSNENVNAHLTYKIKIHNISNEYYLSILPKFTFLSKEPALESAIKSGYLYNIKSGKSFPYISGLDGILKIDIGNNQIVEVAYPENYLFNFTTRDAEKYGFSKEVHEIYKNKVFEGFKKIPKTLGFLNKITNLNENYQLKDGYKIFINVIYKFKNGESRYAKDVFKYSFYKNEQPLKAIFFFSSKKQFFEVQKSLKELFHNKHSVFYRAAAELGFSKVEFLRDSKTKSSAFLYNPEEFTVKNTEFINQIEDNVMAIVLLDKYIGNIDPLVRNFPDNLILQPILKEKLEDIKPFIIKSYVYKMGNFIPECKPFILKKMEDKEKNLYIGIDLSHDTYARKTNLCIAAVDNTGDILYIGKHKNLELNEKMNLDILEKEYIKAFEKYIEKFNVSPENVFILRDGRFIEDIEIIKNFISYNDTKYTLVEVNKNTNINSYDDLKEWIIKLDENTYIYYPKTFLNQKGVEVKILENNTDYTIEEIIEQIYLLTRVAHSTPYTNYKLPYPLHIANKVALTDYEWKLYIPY
# T2: dMpAgo (catalytically inactive MpAgo) (Marinitoga piezophila, UniProt H2J4R4 1-639, D446A)
# T2 sequence: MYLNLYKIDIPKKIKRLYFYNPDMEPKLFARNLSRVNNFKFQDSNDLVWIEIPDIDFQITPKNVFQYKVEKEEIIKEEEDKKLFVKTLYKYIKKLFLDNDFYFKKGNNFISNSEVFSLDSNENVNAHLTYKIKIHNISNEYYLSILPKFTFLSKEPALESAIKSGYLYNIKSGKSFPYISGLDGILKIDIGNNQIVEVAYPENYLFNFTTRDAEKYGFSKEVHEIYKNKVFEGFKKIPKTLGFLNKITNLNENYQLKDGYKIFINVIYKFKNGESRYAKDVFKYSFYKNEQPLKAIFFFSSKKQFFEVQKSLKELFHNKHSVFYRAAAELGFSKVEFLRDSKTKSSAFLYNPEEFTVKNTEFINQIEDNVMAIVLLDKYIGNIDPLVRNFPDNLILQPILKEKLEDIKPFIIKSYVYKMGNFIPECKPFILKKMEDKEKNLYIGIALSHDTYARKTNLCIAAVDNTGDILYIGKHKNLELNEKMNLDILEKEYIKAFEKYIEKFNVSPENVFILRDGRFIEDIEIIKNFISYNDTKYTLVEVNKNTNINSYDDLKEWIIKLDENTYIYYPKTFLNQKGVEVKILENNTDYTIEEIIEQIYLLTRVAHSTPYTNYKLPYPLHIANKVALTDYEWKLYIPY
# Key:
# Assay in all cases: filter binding
# [1] = biological target: T1, MpAgo WT; details: biotinylated
# [2] = biological target: T1, MpAgo WT
# [3] = biological target: T1, MpAgo WT; remark: listed apart in the source
# [4] = biological target: T2, dMpAgo (catalytically inactive MpAgo)
# [5] = biological target: T2, dMpAgo (catalytically inactive MpAgo); remark: listed apart in the source
# [6] = biological target: T2, dMpAgo (catalytically inactive MpAgo); remark: listed apart in the source
# [7] = biological target: T2, dMpAgo (catalytically inactive MpAgo); remark: listed apart in the source
# [8] = biological target: T2, dMpAgo (catalytically inactive MpAgo); remark: listed apart in the source
# [9] = biological target: T2, dMpAgo (catalytically inactive MpAgo); remark: listed apart in the source
# [10] = biological target: T2, dMpAgo (catalytically inactive MpAgo); remark: listed apart in the source
# [11] = biological target: T2, dMpAgo (catalytically inactive MpAgo); remark: listed apart in the source
# [12] = biological target: T2, dMpAgo (catalytically inactive MpAgo); remark: listed apart in the source
# [13] = biological target: T2, dMpAgo (catalytically inactive MpAgo); remark: listed apart in the source
# [14] = biological target: T2, dMpAgo (catalytically inactive MpAgo); remark: listed apart in the source
# [15] = biological target: T2, dMpAgo (catalytically inactive MpAgo); remark: listed apart in the source
molecule,measurement,setting,value
33-nt gRNA,Kd,[1],35 nM
"GAUACAACCUACUACCUCAUU (ssRNA, 5'-OH) [gRNA 5'-rG]",Kd,[2],52 ± 4 nM
same,Kd,[3],49 ± 5 nM
"BrdU guide / ON target (mixed, BrdU at guide 1) RNA 1: UAUACAACCUACUACCUCAUU RNA 2: GGACUAUGAUCUAGAUAUUAAUGAGGUAGUAGGUUGUAUCUCAGGAGGUC",Kd,[4],0.5 ± 0.115 nM
same,Kd,[5],0.175 ± 0.023 nM
same,Kd,[6],0.193 ± 0.02 nM
"G6 guide / A target (mixed, BrdU at guide 1) RNA 1: UGCGGGUGCCAUAUGCAACUU RNA 2: GGCAGCAUUCAACCAUAUGGCAACCGCAUACAGCCAAG",Kd,[7],0.779 ± 0.071 nM
"A6 guide / mm1 (mixed, BrdU at guide 1) RNA 1: UGCGGAUGCCAUAUGCAACUU RNA 2: GGCAGCAUUCAACCAUAUGGCAUCCGCUUACAGCCAAG",binding result,[8],binds
"A7 guide / C target (mixed, BrdU at guide 1) RNA 1: UAGCGGAUGCCAUAUCCAACU RNA 2: GGCAGCAUUCAACCAUAUGGCACCCGCAUACAGCCAAG",binding signal,[9],47 fold Kd vs C7 guide/A target
"C7 guide / A target (mixed, BrdU at guide 1) RNA 1: UAGCGGCUGCCAUAUCCAACU RNA 2: GGCAGCAUUCAACCAUAUGGCAACCGCAUACAGCCAAG",binding signal,[10],~33 fold Kd vs I target
"U6 guide / G target (mixed, BrdU at guide 1) RNA 1: UGCGGUUGCCAUAUGCAACUU RNA 2: GGCAGCAUUCAACCAUAUGGCAGCCGCAUACAGCCAAG",binding signal,[11],21 fold Kd vs G6 guide/U target
"A6 guide / U target (complementary) (mixed, BrdU at guide 1) RNA 1: UGCGGAUGCCAUAUGCAACUU RNA 2: GGCAGCAUUCAACCAUAUGGCAUCCGCAUACAGCCAAG",binding result,[7],binds
"C6 guide / G target (mixed, BrdU at guide 1) RNA 1: UGCGGCUGCCAUAUGCAACUU RNA 2: GGCAGCAUUCAACCAUAUGGCAGCCGCAUACAGCCAAG",binding result,[12],binds
"U6 guide / U target (mixed, BrdU at guide 1) RNA 1: UGCGGUUGCCAUAUGCAACUU RNA 2: GGCAGCAUUCAACCAUAUGGCAUCCGCAUACAGCCAAG",binding result,[13],binds
"G6 guide / C target (mixed, BrdU at guide 1) RNA 1: UGCGGGUGCCAUAUGCAACUU RNA 2: GGCAGCAUUCAACCAUAUGGCACCCGCAUACAGCCAAG",binding signal,[14],13 fold Kd vs C6 guide/G target
"G6 guide / U target (mixed, BrdU at guide 1) RNA 1: UGCGGGUGCCAUAUGCAACUU RNA 2: GGCAGCAUUCAACCAUAUGGCAUCCGCAUACAGCCAAG",binding result,[15],binds
"A6 guide / A target (mixed, BrdU at guide 1) RNA 1: UGCGGAUGCCAUAUGCAACUU RNA 2: GGCAGCAUUCAACCAUAUGGCAACCGCAUACAGCCAAG",binding signal,[11],~10 fold Kd vs I target
"C6 guide / U target (mixed, BrdU at guide 1) RNA 1: UGCGGCUGCCAUAUGCAACUU RNA 2: GGCAGCAUUCAACCAUAUGGCAUCCGCAUACAGCCAAG",binding result,[13],binds
"BrdU guide / OFF target (mixed, BrdU at guide 1) RNA 1: UAUACAACCUACUACCUCAUU RNA 2: GUUAUGUGUGUGAUUAUAUUUGUUCCAGUUCCUGUGUAAUAGACAUGGAA",binding result,[5],no binding
